# According to the MegaScale stability set (Tsuboyama et al. 2023):
# B1: HHH_rd1_0493 (parent)
# chain: RDEDEKEKIKEALKRGNEDKAKEIAKRANVSPEEYERLRKEAE
# Variants of: B1
# Test: folding stability dG (cDNA display proteolysis); higher = more stable
# Conditions: PBS, room temperature
row,Variant,folding stability dG [kcal/mol]
1,R15L,3.09
2,S31K,2.07
3,E23F,1.7
4,K6H,3.07
5,N29D,2.39
6,K22F,2.31
7,R27P,0.689
8,E23T,2.22
9,K40D,2.63
10,K20A,3.16
11,E7A,3.08
12,E3N,3
13,E5S,3.02
14,K22G,1.64
15,S31N,2.39
16,G16I,0.476
17,L13A,0.528
18,E36Q,2.11
19,K6A,2.57
20,A12W,3.01
21,S31D,2.6
22,E43P,1.3
23,V30T,1.84
24,L38A,0.829

row,Variant,folding stability dG [kcal/mol]
1,K8T,2.27
2,E5L,3.6
3,E18G,2.06
4,A12T,1.43
5,K8S,2.78
6,D2I,3.21
7,D19W,2.72
8,R27L,2.82
9,R1D,3.13
10,N29K,2.74
11,I24A,1.47
12,K20Y,3.13
13,N29H,2.67
14,A42P,0.795
15,D19T,3.05
16,A28C,2.78
17,E7Y,2.85
18,R39Y,1.87
19,G16R,1.97
20,S31M,2.11
21,K8L,3.06
22,R15N,3.17
23,D4C,2.96
24,K40M,3.2

row,Variant,folding stability dG [kcal/mol]
1,S31W,1.27
2,N29L,2.22
3,R15M,3.21
4,K22L,3.1
5,K6V,2.74
6,E41I,2.38
7,V30A,0.849
8,E34F,0.766
9,E23W,1.79
10,A21S,1.11
11,D4F,2.73
12,L13M,2.49
13,A12H,2.85
14,K40V,3.01
15,R15F,2.62
16,G16T,0.598
17,L13N,0.415
18,A21Y,0.355
19,R39Q,2.2
20,E18W,2.62
21,A25F,0.695
22,G16D,1.47
23,A12K,0.896
24,E41T,1.97

row,Variant,folding stability dG [kcal/mol]
1,V30Y,1.84
2,D2N,3
3,A21C,1.29
4,D2P,3.06
5,A12N,2.1
6,D4L,3.01
7,Y35T,0.361
8,L13T,0.471
9,A28H,2.83
10,K40P,0.577
11,L38K,0.318
12,R1F,3.01
13,A25W,-0.051
14,N17H,3.01
15,A21W,0.514
16,R27T,2.51
17,A21P,0.448
18,E11M,2.67
19,R15I,2.77
20,V30Q,0.766
21,K20F,2.98
22,R27I,2.65
23,I9F,0.774
24,S31C,1.74

row,Variant,folding stability dG [kcal/mol]
1,E3Y,3.01
2,D2E,3.11
3,A28G,2.32
4,A28D,1.36
5,A21D,0.52
6,L13K,0.273
7,E34N,0.916
8,E11A,2.82
9,V30W,1.73
10,K26V,2.73
11,E18H,2.94
12,D19A,3.31
13,I24V,1.87
14,D2Y,3.38
15,K22V,2.44
16,N29P,0.97
17,D19E,3.28
18,K10R,2.49
19,K22R,3.21
20,K40I,3.16
21,K26A,3.03
22,A42I,2.87
23,K26Q,2.99
24,K14N,1.81

row,Variant,folding stability dG [kcal/mol]
1,R27E,2.71
2,A42K,1.03
3,R37N,2.35
4,E18A,2.59
5,K26S,2.75
6,R27V,2.42
7,A28R,1.84
8,L13Q,0.615
9,E23I,2.35
10,S31H,1.95
11,K6R,3.3
12,A25L,0.818
13,A28E,1.96
14,A12R,0.882
15,I9R,0.406
16,E7Q,3.13
17,A28W,2.25
18,E23Y,1.79
19,K20R,3
20,E36P,0.261
21,P32C,2.07
22,A12C,1.94
23,R1H,3.11
24,E43H,2.77

row,Variant,folding stability dG [kcal/mol]
1,E36S,1.75
2,S31G,2.94
3,E36T,1.7
4,K8Y,2.09
5,A42G,1.62
6,K14Y,1.97
7,R39T,1.89
8,L38T,0.593
9,E18T,2.84
10,E33W,2.06
11,R27M,2.61
12,E11H,2.38
13,K20L,4.31
14,K22E,2.26
15,K10Q,0.854
16,R15A,3.36
17,D4Y,2.9
18,E34L,1.56
19,A12I,1.24
20,E33K,2.04
21,D4E,2.98
22,E34I,1.79
23,P32N,2.63
